Measurements published in PMC2173270 (The Journal of Cell Biology, 2002).
No end group written: not given here. *: point of attachment. Biotin = O=C1N[C@H]2[C@H](CS[C@H]2CCCCC(=O)*)N1

B1: syntaxin-5 (endogenous) (natural protein)
chain: MIPRKRYGSKNTDQGVYLGLSKTQVLSPATAINSSSDIAPLPTPVALVPSPPDTMSCRDRTQEFLSACKSLQSRQNGIQTNKPALHATRQCSEFTLMARRIGKDLSNTFAKLEKLTILAKRKSLFDDKAVEIEELTYIIKQDINSLNKQIAQLQDFVRAKGSQSGRHLQTHSNTIVVSLQSKLASMSNDFKSVLEVRTENLKQQRNRREQFSRAPVSALPLAPNNLGGGPIVLGGESRASRDVAIDMMDPRTSQQLQLIDEQDSYIQSRADTMQNIESTIVELGSIFQQLAHMVKEQEETIQRIDENVLGAQLDVEAAHSEILKYFQSVTSNRWLMVKIFLILIVFFIIFVVFLA
B2: His–GOS-28 (domain or fragment)
chain: AAGTSNYWEDLRKQARQLENELDLKLVSFSKLCTSYSHSSARDGGRDRYSSDTTPLLNGSSQDRMFETMAIEIEQLLARLTGVNDKMAEYTHSAGVPSLNAALMHTLQRHRDILQDYTHEFHKTKANFMAIRERENLMGSVRKDIESYKSGSGVNNRRTELFLKEHDHLRNSDRLIEETISIAMATKENMTSQRGMLKSIHSKMNTLANRFPAVNSLIQRINLRKRRD
B3: CC4 (aa 843–930 of rat p115) (peptide)
peptide: TTDVEGRLSALLQETKELKNEIKALSEERTAIQKQLDSSNSTIAILQTEKDKLYLEVTDSKKEQDDLLVLLADQDQKILSLKSKLKDL
modifications: NH2-terminally biotinylated
B4: CC1 (aa 637–699 of rat p115) (peptide)
peptide: Biotin-KEEEVKKTLEQHDNIVTHYKNMIREQDLQLEELKQQVSTLKCQNEQLQTAVTQQASQIQQHKD
B5: GOS-28 (endogenous) (natural protein)
chain: MAAGTSNYWEDLRKQARQLENELDLKLVSFSKLCTSYSHSSARDGGRDRYSSDTTPLLNGSSQDRMFETMAIEIEQLLARLTGVNDKMAEYTHSAGVPSLNAALMHTLQRHRDILQDYTHEFHKTKANFMAIRERENLMGSVRKDIESYKSGSGVNNRRTELFLKEHDHLRNSDRLIEETISIAMATKENMTSQRGMLKSIHSKMNTLANRFPAVNSLIQRINLRKRRDSLILGGVIGICTILLLLYAFH
B6: GST–syntaxin-5 (domain or fragment)
chain: MIPRKRYGSKNTDQGVYLGLSKTQVLSPATAINSSSDIAPLPTPVALVPSPPDTMSCRDRTQEFLSACKSLQSRQNGIQTNKPALHATRQCSEFTLMARRIGKDLSNTFAKLEKLTILAKRKSLFDDKAVEIEELTYIIKQDINSLNKQIAQLQDFVRAKGSQSGRHLQTHSNTIVVSLQSKLASMSNDFKSVLEVRTENLKQQRNRREQFSRAPVSALPLAPNNLGGGPIVLGGESRASRDVAIDMMDPRTSQQLQLIDEQDSYIQSRADTMQNIESTIVELGSIFQQLAHMVKEQEETIQRIDENVLGAQLDVEAAHSEILKYFQSVTSNR
B7: Ykt6p (endogenous) (natural protein)
chain: MKLYSLSVFYKGEPKAVLLKAAYDVSSFSFFQRSSVQEFMTFTSQLIVERSAKGSRASVKEQEYLCHVYVRSDSLAGVVIADSEYPSRVAFTLLEKVLDEFSKQVDRIDWPVGSPATIHYTALDGHLSRYQNPREADPMSKVQAELDETKIILHNTMESLLERGEKLDDLVSKSEVLGTQSKAFYKTARKQNSCCAIM

Assays:
GS15 (endogenous) = target: T1, GS15 (endogenous) (rat (endogenous in rat liver Golgi …, UniProt O35152 1-111)); assay: co-IP
T1 sequence: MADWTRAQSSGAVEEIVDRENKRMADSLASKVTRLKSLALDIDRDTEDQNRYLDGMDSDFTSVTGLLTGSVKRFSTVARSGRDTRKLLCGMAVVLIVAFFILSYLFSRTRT

GST–syntaxin-5 = target: B6; assay: pull-down
p115 = target: T2, p115 (rat, UniProt P41542 1-959); assay: pull-down
T2 sequence: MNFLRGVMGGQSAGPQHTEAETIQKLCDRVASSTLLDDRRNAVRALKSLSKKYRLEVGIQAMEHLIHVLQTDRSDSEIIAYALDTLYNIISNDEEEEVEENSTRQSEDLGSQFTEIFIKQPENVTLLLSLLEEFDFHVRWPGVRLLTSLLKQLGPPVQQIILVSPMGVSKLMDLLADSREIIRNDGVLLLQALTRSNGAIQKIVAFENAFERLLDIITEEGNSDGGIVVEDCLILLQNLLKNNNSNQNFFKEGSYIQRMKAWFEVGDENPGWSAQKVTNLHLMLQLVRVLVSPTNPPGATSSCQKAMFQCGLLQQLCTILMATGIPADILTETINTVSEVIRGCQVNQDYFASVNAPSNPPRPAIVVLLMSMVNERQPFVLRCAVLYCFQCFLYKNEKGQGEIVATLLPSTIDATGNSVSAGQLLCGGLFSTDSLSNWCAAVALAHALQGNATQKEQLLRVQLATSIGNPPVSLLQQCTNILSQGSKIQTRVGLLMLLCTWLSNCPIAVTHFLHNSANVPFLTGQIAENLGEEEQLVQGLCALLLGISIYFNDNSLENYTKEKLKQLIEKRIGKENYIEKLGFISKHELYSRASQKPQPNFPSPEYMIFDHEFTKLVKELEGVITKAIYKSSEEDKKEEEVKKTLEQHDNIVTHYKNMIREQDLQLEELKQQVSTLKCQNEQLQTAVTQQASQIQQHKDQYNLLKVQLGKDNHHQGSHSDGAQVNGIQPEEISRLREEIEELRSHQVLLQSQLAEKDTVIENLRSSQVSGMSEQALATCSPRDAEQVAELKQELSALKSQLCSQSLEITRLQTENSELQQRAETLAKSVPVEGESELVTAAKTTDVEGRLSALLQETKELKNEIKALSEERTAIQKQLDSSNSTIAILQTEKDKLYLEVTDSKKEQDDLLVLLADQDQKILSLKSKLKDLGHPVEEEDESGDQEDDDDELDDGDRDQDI

[1] = target: the molecule itself; assay: SEC + other: laser light scattering + native gel or EMSA

Binder: B1
- fold enhancement of complex formation by p115 against no p115 (GS15 (endogenous)): ~5 fold

Binder: B2
- fold stimulation of the interaction by p115 against no p115 (GST–syntaxin-5): 4 fold
- Kd (p115): 1.5 µM

Binder: Biotin-QPEEISRLREEIEELRSHQVLLQSQLAEKDTVIENLRS [CC2 (aa 728–765 of rat p115)]
- percent dimeric [1]: ~20%
- percent tetrameric [1]: ~10%

Binder: B3
- percent dimeric [1]: ~20%
- percent tetrameric [1]: ~10%

Binder: B4
- percent dimeric [1]: ~20%
- percent tetrameric [1]: ~10%

Binder: B5
- fold enhancement of complex formation by p115 against no p115 (GS15 (endogenous)): ~5 fold

Binder: B6
- Kd (p115): 1.8 µM

Binder: B7
- fold enhancement of complex formation by p115 against no p115 (GS15 (endogenous)): ~5 fold

Binder: Biotin-DAEQVAELKQELSALKSQLCSQSLEITRLQTENSELQQRAETLAK [CC3 (aa 783–827 of rat p115)]
- percent dimeric [1]: ~20%
- percent tetrameric [1]: ~10%
